Consider two substances from publication PMC4633281.

For test [1], the target named is TamA with loop-His6 sequence (E. coli) (UniProt P0ADE4). Nature of the test: magnetic contrast neutron reflectometry.
In test [2] the target is reconstituted TAM (TamA loop-His6 with purified TamB) in a supported membrane (E. coli) (UniProt P0ADE4). Nature of the test: magnetic contrast neutron reflectometry.
For test [3], the target named is TamA with loop-His6 sequence (E. coli) (UniProt P0ADE4). Nature of the test: quartz crystal microbalance with dissipation.

Substance “Ag43, urea-denatured, purified (from UniProt P39180 53-1039) (natural protein)” registered a surface excess of Ag43, fold over that with the complete TAM in test [1] of 3 fold. Further, the volume fraction of Ag43 in the membrane layer in test [1] turned out to be 45%; in test [2], 11%.

Regarding “TamB, soluble, purified from the periplasm (domain or fragment)”, in test [3], the decrease in frequency (QCM-D) amounted to 95 Hz and the frequency response (QCM-D) was 30 Hz.
